The record followed here is US20240336686A1 (ELPISCIENCE SUZHOU BIOPHARMA, published 2024).

Usually IC50 stands for the concentration that inhibits the measured activity by half. For orientation: EC50 means the concentration giving half of the maximal effect. Low readings indicate a more potent agent, high ones a less potent agent. Usually EC50 (read off the curve) stands for the midpoint of the concentration-response curve. A word on the Kd: it is the free concentration of one partner at which half of the binding sites on the other are occupied at equilibrium, for simple one-to-one binding. Read a high Kd as weaker binding. Usually koff stands for a measure of how fast the partners let go of each other. Lower therefore signals slow dissociation. As a reminder, the kon is the rate constant with which the complex forms. The low end stands for slower complex formation, the high end for faster complex formation.

Test [1] addresses T1, human SIRPα v2 ECD recombinant protein (human).
T1 construct: extracellular domain; Coated on the ELISA plate
Kind of test: competitive ELISA, plate-coated human SIRPα v2 ECD; blocked ligand: mFc tagged human CD47 ECD. Here is the method: (§1) Competitive ELISA assay was used to determine whether the purified chimeric antibodies can block CD47 and SIRPα interaction. Briefly, antibody and mFc tagged human CD47 ECD recombinant protein were co-incubated with ELISA microplate coated human SIRPα v1 ECD or human SIRPα v2 ECD recombinant protein. The concentration of soluble ECD of CD47 is 25 nM, and the concentration of soluble ECD of SIRPα is 20 nM. After washing, HRP labeled anti-mouse Fc 2nd antibody (Sigma) was added and incubated at 37° C. for 1 hour. Then, 100 μl/well of TMB solution (Biotechnology) was added. After incubation for 15 minutes at room temperature, the reaction was stopped by the addition of 50 μl of 1N HCl. OD 450 nm was read. Blocking ratio was determined by blockade of human SIRPα ECD recombinant protein binding to ELISA microplate coated human CD47 ECD recombinant protein. All antibodies as tested can block interaction between human CD47 and different human SIRPα variants.

Test [2] has as its target T2, human SIRPα v1 on CHOK1 cells (human, UniProt P78324 31-504).
T2 construct: whole, on cells; also called CHOK1-hSIRPα v1; cell surface human SIRPα v1
Kind of test: FACS, CHOK1 cells stably expressing human SIRPα v1. An excerpt:
(§2) Binding activity of the purified chimeric antibodies against human SIRPα variants was detected by FACS assay using CHOK1 cells or 293F cells stably expressing human SIRPα v1 and CHOK1 cells stably expressing human SIRPα v2. […] EC₅₀ and top signal calculated using GraphPad Prism9.0.

Test [3] addresses T3, mFc tagged human SIRPα v1 ECD recombinant protein (human, UniProt P78324 31-373).
T3 construct: extracellular domain; not shown: mouse Fc tag
The test can be described thus: competitive ELISA; row antibody in excess in solution, coated mAb 025c. Here is the method:
(§3) Competitive ELISA assay was used for epitope binning of purified chimeric antibodies. Briefly excessive competitor antibody and mFc tagged human SIRPα v1 ECD recombinant protein were co-incubated with ELISA microplate coated antibody. After washing, HRP labeled anti-mouse Fc 2nd antibody (Sigma) was added and incubated at 37° C. for 1 hour. Then, 100 μl/well of TMB solution (Biotechnology) was added. After incubation for 15 minutes at room temperature, the reaction was stopped by the addition of 50 μl of 1N HCl. OD 450 nm was read. Competition ratio was calculated. The antibodies that can compete each other for binding to SIRPα may have related binding epitopes.
In general terms: An ELISA detects its analyte on a solid surface through an enzyme-linked reagent.

Test [4] has as its target T4, Full length human SIRPα v1 with beta-gal fragment (ED) at its C-terminal, in K562 cells (human, UniProt P78324 31-504). Kind of test: cell-based or functional assay.
Test [5] concerns the target T3, mFc tagged human SIRPα v1 ECD …. Kind of test: competitive ELISA; row antibody in excess in solution, coated mAb 042c. On the procedure: as §3
The target of test [6] is T5, human SIRPα v1 ECD recombinant protein (human, UniProt P78324 31-373).
T5 construct: extracellular domain; Coated on the ELISA plate
Kind of test: competitive ELISA, plate-coated human SIRPα v1 ECD; blocked ligand: mFc tagged human CD47 ECD. On the procedure: as §1

Test [7] deals with T6, human SIRPα v2 on CHOK1 cells (human, UniProt P78324 31-504).
T6 construct: whole, on cells; also called CHOK1-hSIRPα v2; cell surface human SIRPα v2
The test can be described thus: FACS, CHOK1 cells stably expressing human SIRPα v2.
Excerpt: as §2
Background: Flow cytometry measures light scatter and fluorescence of single cells or particles in a stream.

The target in test [8] is T3, mFc tagged human SIRPα v1 ECD …. Kind of test: competitive ELISA; row antibody in excess in solution, coated mAb hu1H9G4. Here is the method:
as §3

The target in a further test is human PDL1 on cells (human, UniProt Q9NZQ7 19-290). The test can be described thus: cell-based or functional assay.
Test [9] concerns the target human PDL1 protein (Octet assay) (human, UniProt Q9NZQ7 19-238). The test can be described thus: Octet; antibody on sensor, PDL1 protein in solution. Here is the method: The Anti-PDL1/SIRPα bispecific protein were characterized for binding affinity against human PDL1 using Octet assay (ForeBio) according to manufacturer's manual, separately. Briefly, the antibodies were coupled on sensors and then the sensors were dipped into PDL1 protein gradients (start at 200 nM, with 2-fold dilution and totally 8 doses). Their binding responses were measured in real-time and results were fit globally.
On the technique in general: Biolayer interferometry detects binding as a change in optical thickness at a sensor tip.

For test [10], the target named is T6, human SIRPα v2 on CHOK1 cells. The test can be described thus: FACS, CHOK1 cells stably expressing human SIRPα v2. This is another data set of the same source.
Test [11] addresses T2, human SIRPα v1 on CHOK1 cells. The test can be described thus: competitive FACS, CHOK1 cells stably expressing human SIRPα v1; blocked ligand: mFc tagged human CD47 ECD. Here is the method:
(§4) Competitive FACS assay was also set up to further compare the blocking activity of the humanized antibodies and some known anti-SIRPα antibodies. Briefly antibody and mFc tagged human CD47 ECD recombinant protein were co-incubated with CHOK1 cells stably expressing human SIRPα v1 or human SIRPα v2. After washing, dye labeled anti-mouse Fc 2nd antibody (Sigma) was added and incubated at 37° C. for 1 hour. Fluorescence intensity was detected. Blocking ratio was determined by blockade of human CD47 ECD recombinant protein binding to SIRPα expressed CHOK1 cells.

Test [12] addresses T1, human SIRPα v2 ECD recombinant protein. The test can be described thus: competitive ELISA, plate-coated human SIRPα v2 ECD; blocked ligand: mFc tagged human CD47 ECD. On the procedure:
as §1
(§5) The humanized antibodies were tested for the ability to block CD47 and SIRPα interaction with competitive ELISA assay (refer to methods described above).
The source holds these as a separate data set.

Test [13] concerns the target T4, Full length human SIRPα v1 with …. Kind of test: cell-based or functional assay. The source holds these as a separate data set.
Test [14] deals with T2, human SIRPα v1 on CHOK1 cells. The test can be described thus: FACS, CHOK1 cells stably expressing human SIRPα v1. The source holds these as a separate data set.
The target in test [15] is T6, human SIRPα v2 on CHOK1 cells. The test can be described thus: competitive FACS, CHOK1 cells stably expressing human SIRPα v2; blocked ligand: mFc tagged human CD47 ECD. On the procedure:
as §4

For the next test, the target named is T7, Human SIRPα v2 (human).
T7 construct: also called human SIRPα v2 (antigen of the Biacore assay)
The test can be described thus: SPR (Biacore), 1:1 binding model. Here is the method:
The humanized antibodies were characterized for binding affinity against human SIRPα v1, human SIRPα v2 using Surface Plasmon Resonance technology (Biacore system). The association and dissociation curves were fit with 1:1 binding model, and the Ka/Kd/KD values for each antibody were calculated.

Test [16] concerns the target T5, human SIRPα v1 ECD recombinant protein. Kind of test: competitive ELISA, plate-coated human SIRPα v1 ECD; blocked ligand: mFc tagged human CD47 ECD. On the procedure: as §1, §5
The source holds these as a separate data set.

Like-named read-outs stand apart in the source and are kept apart here.

Sequence of human PDL1 protein (Octet assay) (Q9NZQ7 19-238 limits assumed): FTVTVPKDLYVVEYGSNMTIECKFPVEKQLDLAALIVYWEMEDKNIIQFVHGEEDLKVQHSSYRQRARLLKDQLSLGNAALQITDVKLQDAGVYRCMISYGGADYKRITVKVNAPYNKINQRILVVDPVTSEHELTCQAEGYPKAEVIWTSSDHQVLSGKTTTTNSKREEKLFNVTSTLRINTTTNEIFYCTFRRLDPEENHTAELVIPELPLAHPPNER
T4 sequence (P78324 31-504): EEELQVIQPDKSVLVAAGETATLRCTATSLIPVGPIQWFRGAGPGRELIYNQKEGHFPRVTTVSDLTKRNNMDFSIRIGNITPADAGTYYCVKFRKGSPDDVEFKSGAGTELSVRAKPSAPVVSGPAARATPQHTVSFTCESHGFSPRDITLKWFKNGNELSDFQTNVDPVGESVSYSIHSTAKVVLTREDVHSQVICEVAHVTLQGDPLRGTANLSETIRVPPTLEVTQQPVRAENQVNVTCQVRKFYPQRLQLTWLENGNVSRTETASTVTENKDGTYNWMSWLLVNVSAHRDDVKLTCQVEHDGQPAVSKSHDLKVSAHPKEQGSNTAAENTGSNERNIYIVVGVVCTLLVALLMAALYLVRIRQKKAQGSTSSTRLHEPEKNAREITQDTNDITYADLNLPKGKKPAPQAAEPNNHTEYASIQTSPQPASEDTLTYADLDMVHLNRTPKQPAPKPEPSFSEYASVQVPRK
T2 sequence (P78324 31-504): as above
T5 sequence (P78324 31-373): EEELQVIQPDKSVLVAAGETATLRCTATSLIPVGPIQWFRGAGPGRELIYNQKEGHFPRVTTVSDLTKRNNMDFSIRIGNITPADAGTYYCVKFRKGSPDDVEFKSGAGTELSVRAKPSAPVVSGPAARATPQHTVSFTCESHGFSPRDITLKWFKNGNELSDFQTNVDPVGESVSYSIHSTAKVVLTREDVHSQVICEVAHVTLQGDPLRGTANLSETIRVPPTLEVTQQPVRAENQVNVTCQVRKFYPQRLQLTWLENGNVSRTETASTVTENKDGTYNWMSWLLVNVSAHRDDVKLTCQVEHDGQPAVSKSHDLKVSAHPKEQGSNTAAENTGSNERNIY
T3 sequence (P78324 31-373): as above
T6 sequence (P78324 other isoform, or with tags, fused parts or gaps limits assumed): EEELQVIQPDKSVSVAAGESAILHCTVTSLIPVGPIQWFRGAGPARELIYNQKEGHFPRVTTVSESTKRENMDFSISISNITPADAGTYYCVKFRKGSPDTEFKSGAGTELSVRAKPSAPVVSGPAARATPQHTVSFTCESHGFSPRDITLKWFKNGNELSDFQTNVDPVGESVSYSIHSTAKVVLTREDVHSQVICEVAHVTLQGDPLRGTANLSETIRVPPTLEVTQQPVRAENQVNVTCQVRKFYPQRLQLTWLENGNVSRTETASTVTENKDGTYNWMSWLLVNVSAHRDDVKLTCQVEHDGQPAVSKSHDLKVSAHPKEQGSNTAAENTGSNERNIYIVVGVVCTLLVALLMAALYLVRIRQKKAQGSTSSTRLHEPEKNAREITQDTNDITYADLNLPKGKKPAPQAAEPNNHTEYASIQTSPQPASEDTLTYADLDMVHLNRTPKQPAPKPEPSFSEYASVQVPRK
Sequence of human PDL1 on cells (Q9NZQ7 19-290): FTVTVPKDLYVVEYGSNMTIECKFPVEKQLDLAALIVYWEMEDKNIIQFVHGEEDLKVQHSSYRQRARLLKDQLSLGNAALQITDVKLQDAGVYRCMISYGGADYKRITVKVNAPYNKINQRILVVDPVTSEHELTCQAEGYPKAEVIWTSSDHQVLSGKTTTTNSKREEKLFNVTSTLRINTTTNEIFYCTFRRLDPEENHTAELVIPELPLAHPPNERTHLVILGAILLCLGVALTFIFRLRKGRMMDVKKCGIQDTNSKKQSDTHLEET

B1: Anti-SIRPα antibody C42 (antibody, human IgG4, V domains shown)
VH: QIQLVQSGPELKKPGETVKISCRASGYTFTTYGMSWVKQAPGKGLRWMGWINTYSGVSTCADDFKGRFAFSLETSATTAYLQIHNLTNEDTATYFCARDPHSYGNSPAWFPYWGQGTLVTVSA
VL: DIVMTQSQKFMSTTIRDRVSITCKASQNVGISVAWYQQKSGQSPKLLIYSASNRYTGVPDRFTGSGSGTDFTLTISNMQSEDLADYFCQQYSSYPLTFGSGTKLAIK
notes: Mouse variable regions; also called 042c
For the molecule B1, the results for the concentration for half-maximal inhibition (IC50) in test [1] and in [6] were 4.49 nM and 3.6 nM, respectively. For the same molecule, the TOP blocking in test [1] is 94.6%; in test [6], 97.1%. Besides, the EC50 in [2] stood at 1.9 nM; in test [7], 4.21 nM. In addition, the “TOP MFI” value in test [2] turned out to be 73200 MFI; in test [7], 54800 MFI. Besides, the “% Competition” value in [3] was 8.9%; in [5], 93.9%; in test [8] it was 29.8%. Moreover, the “IC50 (SHP-1 recruitment blocking)” value in test [4] was 0.99 nM. Moreover, the “TOP blocking (SHP-1 recruitment)” value in [4] was 70%.

B2: Anti-PDL1/SIRPα bispecific antibody ES019-026 (bispecific antibody, not shown: small tags and cut ends; a dimerising Fc or GST)
light (part 1 of 2): EVQVVESGGGLVQSGGSLKLSCAGSGFTESAGFMVWHRQVPGKERELVALIATPSGSTNYADSVKGRFTISRDNGKNTVYLQMNSLKPEDTAVYYCNIRGYWGQGTLVTVSS
light (part 2 of 2): QIVLTQSPAIMSASPGEKVTLTCSASSSVSSSYLYWYQQKPGSSPKLWIYSTSNLASGVPARFSGSGSGTSYSLTISSMEAEDAASYFCHQWSSYPYTFGGGTKLEIK
heavy: EVQLQQSGAELVKPGASVKLSCTASGFNIKDYYMHWVKQRTEQGLEWIGRIDPEDGETKYAPKFQGKATITADTSSNTAYLQLSSLTSEDTAVYYCDRGLAYWGQGTLVTVSA
For the molecule B2, in the test with human PDL1 on cells, the concentration giving a half-maximal response (EC50 (read off the curve)) is around 1 nM. In test [9], this molecule registered a dissociation constant (Kd) of 4.1 nM, an off-rate constant (koff) of 0.00639 s⁻¹ and an association rate constant (kon) of 1.56e+06 M⁻¹ s⁻¹.

B3: Reference anti-SIRPα antibody hu1H9G4 (antibody, human IgG4, V domains shown)
VH: QVQLVQSGAEVKKPGASVKVSCKASGYTFTSYWITWVKQAPGQGLEWIGDIYPGSGSTNHIEKFKSKATLTVDTSISTAYMELSRLRSDDTAVYYCATGYGSSYGYFDYWGQGTLVTVSS
VL: DIQMTQSPSSLSASVGDRVTITCRASENIYSYLAWYQQKPGKAPKLLIYTAKTLAEGVPSRFSGSGSGTDFTLTISSLQPEDFATYYCQHQYGPPFTFGQGTKLELK
On to B3, for which the “% Competition” value was found to be 14.5% in test [3], 82.6% in [5] and 90.5% in test [8].

B4: Humanized anti-SIRPα antibody hu025.023 (antibody, V domains shown)
VH: EVQLVQSGAEVKKPGATVKISCKVSGFNIKDYYMHWVQQAPGKGLEWIGRIDPEDAETKYAPKFQGRVTITADTSTNTAYMELSSLRSEDTAVYYCDRGLAYWGQGTLVTVSS
VL: EIVLTQSPATLSLSPGERATLSCSASSSVSSSYLYWYQQKPGQAPKLWIYSTSNLASGIPARFSGSGSGTDFTLTISSLEPEDFAVYYCHQWSSYPYTFGQGTKLEIK
notes: Humanized from C25
Turning to B4, in test [10], the midpoint of the response, the EC50, lay at 0.81 nM and the “TOP MFI” value is 45800 MFI. In test [11], this molecule yielded an IC50 of 0.57 nM and a TOP blocking of 97.7%. Further, in test [12], the IC50 stood at 2.07 nM and the TOP blocking turned out to be 98%. In test [13], the “IC50 (SHP-1 recruitment blocking)” value worked out at 0.1 nM and the “TOP blocking (SHP-1 recruitment)” value was determined as 85.5%. Besides, in test [14], a half-maximal response (EC50) required 1.13 nM and the “TOP MFI” value turned out to be 57800 MFI. Also, in test [15], the IC50 was 0.75 nM and the TOP blocking came to 100%. Besides, in the test with Human SIRPα v2, the Kd was found to be 2.78 nM, the dissociation rate constant (koff) came out at 0.00492 s⁻¹ and the on-rate constant (kon) was 1.77e+06 M⁻¹ s⁻¹. In test [16], the IC50 was determined as 2.6 nM and the TOP blocking was determined as 97.2%.

B5: Humanized anti-SIRPα antibody hu025.060 (antibody, V domains shown)
VH: EVQLVQSGAEVKKPGATVKISCKASGFNIKDYYMHWVQQAPGKGLEWIGRIDPEDAETKYAPKFQGRVTITADTSTNTAYMELSSLRSEDTAVYYCDRGLAYWGQGTLVTVSS
VL: EIVLTQSPATLSLSPGERATLSCSASSSVSSSYLYWYQQKPGQAPKLWIYSTSNLASGIPARFSGSGSGTDFTLTISSLEPEDFAVYYCHQWSSYPYTFGQGTKLEIK
notes: Humanized from C25
Regarding B5, in test [10], the half-maximal effective concentration (EC50) was 0.8 nM and the “TOP MFI” value came out at 48800 MFI. For the same molecule, in [11], the IC50 was 0.53 nM and the TOP blocking came out at 98.7%. Further, in test [12], the half-maximal inhibitory concentration (IC50) was 1.88 nM and the TOP blocking came out at 97%. Further, in test [13], the “IC50 (SHP-1 recruitment blocking)” value was 0.09 nM and the “TOP blocking (SHP-1 recruitment)” value turned out to be 87.5%. In addition, in test [14], the EC50 is 0.84 nM and the “TOP MFI” value was 61500 MFI. In [15], this molecule had a half-inhibitory concentration (IC50) of 0.77 nM and a TOP blocking of 99.8%. Further, in the test with Human SIRPα v2, the dissociation constant Kd stood at 2.34 nM, the off-rate constant (koff) stood at 0.00344 s⁻¹ and the on-rate (kon) was found to be 1.47e+06 M⁻¹ s⁻¹. Moreover, in test [16], the concentration for half-maximal inhibition (IC50) was determined as 2.15 nM and the TOP blocking was determined as 95.2%.
